For one substance, activity (fold over background) results are on record in US6235873.

In this data set the test system is Stat3-C (A662C/N664C Stat3) (Mus musculus). The experiment in a line: cell_activity. Particulars: approximately 10-fold, no induced tyrosine phosphorylation.

Regarding 4x m67 luciferase reporter, the activity (fold over background) is 10.
